Experiment [1] has as its target Transthyretin, wild type, first purification protocol (TTR1st) (human (by the printed accession P02766)) (UniProt P02766). The experiment can be described thus: SEC. For orientation: In gel filtration, larger molecules generally elute earlier.
For experiment [2] the target is unchanged. The experiment can be described thus: SEC. The source holds these as a separate data set.

Where two headings read alike, the source gives them in different places.

Among the data in doi:10.1101/2023.08.10.552896 are percent of the sample as oligomers (oTTR), percent of the sample as tetramer and stoichiometry N values, retold here.

In general, stoichiometry N refers to a count of units in the complex or per binding partner. Consider “Transthyretin, wild type, first purification protocol (TTR1st) (from UniProt P02766 21-147) (enzyme)”, for which the percent of the sample as oligomers (oTTR) in experiment [1] was 4%. In experiment [2], this substance gave a percent of the sample as oligomers (oTTR) of 7%, a percent of the sample as tetramer of 93% and a stoichiometry N of 4.
